Source: publication PMC4182809

Target: plastidic glutamine synthetase (GS2), spinach, 420 kDa stromal holoenzyme (spinach (Spinacia oleracea), endogenous in leaf chloroplasts)
Assay: native gel or EMSA; BN-PAGE (4-16% Bis-Tris gradient gel, 4°C) of stroma and thylakoid proteins of chloroplasts, western blot, with 2D SDS-PAGE; extraction in 20 mM Hepes-KOH pH 7.5, or potassium phosphate pH 6 or pH 8 with or without 0.1 M NaCl, 10 mM DTT or 10 mM ascorbic acid

Substance “plastidic glutamine synthetase (GS2), spinach, 420 kDa stromal holoenzyme” has a stoichiometry N of 10.
